Experimental data from article PMC9738585, “Unveiling the Metal-Dependent Aggregation Properties of the C-terminal Region of Amyloidogenic Intrinsically Disordered Protein Isoforms DPF3b and DPF3a” (International Journal of Molecular Sciences, 2022).

Molecular target: the molecule itself
Experiment: thioflavin T fluorescence; purified C-TER (~10 µM) incubated in TBS (50 mM Tris-HCl pH 8.0, 150 mM NaCl) at ~20 °C for 96 to 144 h; 10 µM ThT, excitation 440 nm, emission 485 nm; self-assembly into amyloid fibrils; also at ~5 µM with 100 µM Cu2+, Mg2+, Ni2+ or Zn2+

Protein | binding result
C-terminal region of DPF3b (C-TERb) (domain or fragment, human, UniProt Q92784-1 200-378, looked up, Double-PHD fingers 3 isoform DPF3b (378 amino acids), human, Uniprot Q92784-1, residues 200-378 (C2H2, PHD-1 and PHD-2 zinc fingers); also called DPF3b C-terminus; source: E. coli BL21 Rosetta (DE3), purified (GSTrap FF, on-column TEV cleavage); not shown: GST, N-terminal, cleaved) CDICGKRYKNRPGLSYHYAHTHLASEEGDEAQDQETRSPPNHRNENHRPQKGPDGTVIPNNYCDFCLGGSNMNKKSGRPEELVSCADCGRSGHPTCLQFTLNMTEAVKTYKWQCIECKSCILCGTSENDDQLLFCDDCDRGYHMYCLNPPVAEPPEGSWSCHLCWELLKEKASAFGCQA | binds
C-terminal region of DPF3a (C-TERa) (domain or fragment, human, UniProt Q92784-2 200-357, looked up, Double-PHD fingers 3 isoform DPF3a (357 amino acids), human, Uniprot Q92784-2, residues 200-357 (C2H2, truncated PHD-1/2 and disordered C-terminal domain); also called DPF3a C-terminus; source: E. coli BL21 Rosetta (DE3), purified (GSTrap FF, on-column TEV cleavage); not shown: GST, N-terminal, cleaved) CDICGKRYKNRPGLSYHYAHTHLASEEGDEAQDQETRSPPNHRNENHRPQKGPDGTVIPNNYCDFCLGGSNMNKKSGRPEELVSCADCGRSAHLGGEGRKEKEAAAAARTTEDLFGSTSESDTSTFHGFDEDDLEEPRSCRGRRSGRGSPTADKKGSC | binds
